Here are results for 1 protein from PMC6018217, “3-Hydroxyphthalic Anhydride- Modified Rabbit Anti-PAP IgG as a Potential Bifunctional HIV-1 Entry Inhibitor” (Frontiers in Microbiology, 2018).

This series concerns the molecule itself. In words: amyloid fibril formation (ThT fluorescence, Congo red, TEM, CD); PAP248-286 alone at 3 mg/ml in PBS, agitated at 1,400 rpm, 37°C, 0-48 h; fibrils read by ThT fluorescence, Congo red staining, negative-stain TEM and CD.

B1: Peptide PAP248-286 (amino acid residues 248-286 of prostatic acidic phosphatase) (peptide, UniProt P15309 248-286, looked up)
peptide: GIHKQKEKSRLQGGVLVNEILNHMKRATQIPSYKKLIMY
notes: Forms SEVI amyloid fibrils when agitated at 3 mg/ml in PBS, 37°C; also called SEVI; SEVI fibrils; source: synthetic peptide (Fmoc solid phase, GL Biochem, HPLC purified)
Consider B1, for which the binding result is “binds”.
